# Columns and labels:
# [1] = CHX (20 µM) chase, PD-L1 half-life; conditions: glycan changed form; control: 231 cells
# [2] = flow cytometry and immunofluorescence; conditions: glycan changed form; control: 231 cells
# [3] = western blot, flow cytometry, confocal microscopy; conditions: glycan changed form; control: MCF7 cells
# [4] = western blot of extracellular vesicles; conditions: glycan changed form; control: 231-EVs
substance,measurement,setting,value
PD-L1: 231-MGAT3 (MGAT3 overexpression),degradation_or_half_life,[1],decreases
same,expression_or_secretion,[2],decreases
PD-L1: MCF7-shM3 (MGAT3 shRNA),expression_or_secretion,[3],increases
PD-L1: 231-MGAT3-EVs (MGAT3 overexpression),expression_or_secretion,[4],decreases
